Test results as given in paper PMC5606850, “Acidic C-terminal domains autoregulate the RNA chaperone Hfq” (eLife, 2017).
*: point of attachment. FITC = O=C1OC2(c3ccc(O)cc3Oc3cc(O)ccc32)c2ccc(NC(=S)*)cc21; Ahx = NCCCCCC(=O)O

Key:
E. coli Hfq65-R16A = target: T1, E. coli Hfq65-R16A (E. coli, UniProt P0A6X3 1-65, R16A); assay: fluorescence polarisation; 45 nM FITC-labelled peptide titrated with Hfq65 or variant (0–100 µM Hfq monomer), 50 mM Tris·HCl pH 7.5 (low salt), 30 °C, duplicate, single-site isotherm; Kd in Hfq monomer; settings: both partners purified
T1 construct: Hfq, E. coli, core residues 1-65, rim mutation R16A; Untagged; made by site-directed mutagenesis of pET21b-Hfq

E. coli Hfq65-R19D = target: T2, E. coli Hfq65-R19D (E. coli, UniProt P0A6X3 1-65, R19D); assay: as above; settings: both partners purified
T2 construct: Hfq, E. coli, core residues 1-65, rim mutation R19D; Untagged; made by site-directed mutagenesis of pET21b-Hfq

E. coli Hfq65-K47A = target: T3, E. coli Hfq65-K47A (E. coli, UniProt P0A6X3 1-65, K47A); assay: as above; settings: both partners purified
T3 construct: Hfq, E. coli, core residues 1-65, rim mutation K47A; Untagged; made by site-directed mutagenesis of pET21b-Hfq

E. coli Hfq65-Q35A = target: T4, E. coli Hfq65-Q35A (E. coli, UniProt P0A6X3 1-65, Q35A); assay: as above; settings: both partners purified
T4 construct: Hfq, E. coli, core residues 1-65, mutation Q35A; Untagged; made by site-directed mutagenesis of pET21b-Hfq

[1] = target: T5, Hfq65 (Hfq core, CTD deleted) (Escherichia coli, UniProt P0A6X3 1-65); assay: EMSA; 33.3 nM hexamer, 10 C; most stable ternary complex; Anisotropy: 10 mM Tris-HCl pH 7.5, 50 mM NaCl, 50 mM KCl, 30 C; CTD-FITC competition: 50 mM Tris-HCl pH 7.5, 30 C; pUC19 EMSA: 40 mM Tris-HCl pH 7.5, 0.14 mM EDTA, 35 mM NH4Cl, 3.7% glycerol, 25 C (competition legend 30 C); settings: protein: recombinant; tags: untagged; chain copies: 6; label: 32P on ChiX; partial RNA-RNA duplex
Hfq102 (wild-type Hfq) [2] = target: T6, Hfq102 (wild-type Hfq) (Escherichia coli, UniProt P0A6X3 1-102); assay: EMSA; 33.3 nM hexamer, 10 C; less ternary complex than Hfq65; Anisotropy: 10 mM Tris-HCl pH 7.5, 50 mM NaCl, 50 mM KCl, 30 C; CTD-FITC competition: 50 mM Tris-HCl pH 7.5, 30 C; pUC19 EMSA: 40 mM Tris-HCl pH 7.5, 0.14 mM EDTA, 35 mM NH4Cl, 3.7% glycerol, 25 C (competition legend 30 C); settings: protein: recombinant; tags: untagged; chain copies: 6; label: 32P on ChiX; partial RNA-RNA duplex
[3] = system: RNA molecular beacon and Target RNA; settings: ref Zheng et al., 2016; cited from earlier work
Hfq102 (wild-type Hfq) [4] = target: T6, Hfq102 (wild-type Hfq); assay: competition; vs pUC19 EMSA; strong; Anisotropy: 10 mM Tris-HCl pH 7.5, 50 mM NaCl, 50 mM KCl, 30 C; CTD-FITC competition: 50 mM Tris-HCl pH 7.5, 30 C; pUC19 EMSA: 40 mM Tris-HCl pH 7.5, 0.14 mM EDTA, 35 mM NH4Cl, 3.7% glycerol, 25 C (competition legend 30 C); settings: protein: recombinant; tags: untagged; chain copies: 6
Hfq102 (wild-type Hfq) [5] = target: T6, Hfq102 (wild-type Hfq); assay: fluorescence anisotropy; Hill 1.4; asterisked value, footnote not in material (possibly earlier work); Anisotropy: 10 mM Tris-HCl pH 7.5, 50 mM NaCl, 50 mM KCl, 30 C; CTD-FITC competition: 50 mM Tris-HCl pH 7.5, 30 C; pUC19 EMSA: 40 mM Tris-HCl pH 7.5, 0.14 mM EDTA, 35 mM NH4Cl, 3.7% glycerol, 25 C (competition legend 30 C); settings: protein: recombinant; tags: untagged; chain copies: 6; label: Cy3; hairpin with 5' overhang
[6] = target: T5, Hfq65 (Hfq core, CTD deleted); assay: competition; displaces CTD-FITC peptide; stronger than length trend; Anisotropy: 10 mM Tris-HCl pH 7.5, 50 mM NaCl, 50 mM KCl, 30 C; CTD-FITC competition: 50 mM Tris-HCl pH 7.5, 30 C; pUC19 EMSA: 40 mM Tris-HCl pH 7.5, 0.14 mM EDTA, 35 mM NH4Cl, 3.7% glycerol, 25 C (competition legend 30 C); settings: protein: recombinant; tags: untagged; chain copies: 6; minRCRB-like hairpin at 5' end
Hfq102 (wild-type Hfq) [7] = target: T6, Hfq102 (wild-type Hfq); assay: competition; vs pUC19 EMSA; good; Anisotropy: 10 mM Tris-HCl pH 7.5, 50 mM NaCl, 50 mM KCl, 30 C; CTD-FITC competition: 50 mM Tris-HCl pH 7.5, 30 C; pUC19 EMSA: 40 mM Tris-HCl pH 7.5, 0.14 mM EDTA, 35 mM NH4Cl, 3.7% glycerol, 25 C (competition legend 30 C); settings: protein: recombinant; tags: untagged; chain copies: 6
Hfq102 (wild-type Hfq) [8] = target: T6, Hfq102 (wild-type Hfq); assay: fluorescence anisotropy; Hill 1.2; Anisotropy: 10 mM Tris-HCl pH 7.5, 50 mM NaCl, 50 mM KCl, 30 C; CTD-FITC competition: 50 mM Tris-HCl pH 7.5, 30 C; pUC19 EMSA: 40 mM Tris-HCl pH 7.5, 0.14 mM EDTA, 35 mM NH4Cl, 3.7% glycerol, 25 C (competition legend 30 C); settings: protein: recombinant; tags: untagged; chain copies: 6; label: 5' FAM on strand 1; blunt
[9] = target: T5, Hfq65 (Hfq core, CTD deleted); assay: fluorescence anisotropy; Hill 0.6; asterisked value, footnote not in material (possibly earlier work); Anisotropy: 10 mM Tris-HCl pH 7.5, 50 mM NaCl, 50 mM KCl, 30 C; CTD-FITC competition: 50 mM Tris-HCl pH 7.5, 30 C; pUC19 EMSA: 40 mM Tris-HCl pH 7.5, 0.14 mM EDTA, 35 mM NH4Cl, 3.7% glycerol, 25 C (competition legend 30 C); settings: protein: recombinant; tags: untagged; chain copies: 6; label: 5' FAM
Hfq102 (wild-type Hfq) [10] = target: T6, Hfq102 (wild-type Hfq); assay: fluorescence anisotropy; Hill 0.7; asterisked value, footnote not in material (possibly earlier work); Anisotropy: 10 mM Tris-HCl pH 7.5, 50 mM NaCl, 50 mM KCl, 30 C; CTD-FITC competition: 50 mM Tris-HCl pH 7.5, 30 C; pUC19 EMSA: 40 mM Tris-HCl pH 7.5, 0.14 mM EDTA, 35 mM NH4Cl, 3.7% glycerol, 25 C (competition legend 30 C); settings: protein: recombinant; tags: untagged; chain copies: 6; label: 5' FAM

B1: CTD-FITC (fluorescently-labeled E. coli Hfq CTD peptide) (peptide)
peptide: {FITC-Ahx}-NNAGGGTSSNYHHGSSAQNTSAQQDSEETE-OH
notes: Hfq, E. coli, C-terminal domain peptide; lacks residues 65-72 of the CTD region; also called CTD-FITC peptide
B1: binds (E. coli Hfq65-R16A); binds (E. coli Hfq65-R19D); binds (E. coli Hfq65-K47A). B1: binds (E. coli Hfq65-Q35A).

B2: ChiX·chiP sRNA-mRNA pair (mixed)
RNA 1: GGGACACCGUCGCUUAAAGUGACGGCAUAAUAAUAAAAAAAUGAAAUUCCUCUUUGACGGGCCAAUAGCGAUAUUGGCCAUUUUUUU
RNA 2: GUAGUCAGCGAGACUUUUCUCAACGCUACUUUUUUAAUUUUUAUUUUUUCGCUGUUCACCUUUGGUGCAGCAAUUUAUACGUCAAAGAGGAUUAACCCAUGCGUACGUUUAGUGGC
B2: binds [1]; binds (Hfq102 (wild-type Hfq) [2]).

B3: Bacillus subtilis Hfq: Hfq of Bacillus subtilis (protein, UniProt O31796 1-73, looked up)
RNA-binding protein Hfq: MKPINIQDQFLNQIRKENTYVTVFLLNGFQLRGQVKGFDNFTVLLESEGKQQLIYKHAISTFAPQKNVQLELE
For B3, the “in vitro RNA annealing activity” value [3] is given as “inactive”.

B4: Target-A18 (ssRNA)
RNA: GUGGUCAGUCGAGUGGAAAAAAAAAAAAAAAAAA
B4: binds (Hfq102 (wild-type Hfq) [4]).

B5: minRCRB-Cy3 (structured_RNA)
RNA: CUUCCGUCCAUUUCGGACG
modifications: 5' Thiol-C6
B5 gave a Kd (Hfq102 (wild-type Hfq) [5]) of 13.9 ± 1.5 nM hexamer.

B6: DNA1 (structured_DNA)
DNA: TATCCGTATGACGTTCCGGACTATGCGGCTAAGGGGCAATCTTTAC
B6: binds [6].

B7: Target-U6 (ssRNA)
RNA: GUGGUCAGUCGAGUGGUUUUUU
B7: binds (Hfq102 (wild-type Hfq) [7]).

B8: D16-FAM·R16 (dsRNA)
RNA 1: CGAAUUUUUUAAGUGC
RNA 2: GCACUUAAAAAAUUCG
For B8, the Kd (Hfq102 (wild-type Hfq) [8]) was 117 ± 12 nM hexamer.

B9: D16-FAM (ssRNA)
RNA: CGAAUUUUUUAAGUGC
B9 showed a Kd [9] of 20 ± 1.3 nM hexamer and a Kd (Hfq102 (wild-type Hfq) [10]) of 15.5 ± 0.9 nM hexamer.
